From patent publication US20130195871A1 (AbbVie / Abbott, published 2013) come the findings set out here.

Test [1] concerns the target T1, Recombinant Human MSP Receptor ECD-His tag (human, UniProt Q04912 25-957).
T1 construct: extracellular domain; bought reagent; also called RON
Put plainly: SPR (Biacore), N-terminal VD.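 Note: capture of antibodies or DVD-Ig proteins on an anti-mouse IgG chip surface, recombinant antigen injected at 10–200 nM in HBS-EP running buffer at 25 °C.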 In general terms: SPR reads the build-up and loss of mass on a sensor chip optically.

In the next test the target is T2, Recombinant Human IGF1R (human, UniProt P08069 31-932).
T2 construct: bought reagent
Put plainly: SPR (Biacore), C-terminal VD.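 Note: surface plasmon resonance with DVD-Ig proteins captured on an anti-IgG chip and recombinant antigen flowed over in HBS-EP buffer, Langmuir global fit, KD taken as koff/kon.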

Test [2] has as its target T3, EGFR on the cell surface (human, UniProt P00533 25-1210).
T3 construct: whole, on cells
Put plainly: flow cytometry on cells, 2 ug/mL, C-terminal VD.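 Note: cells stained for 30 to 60 min on ice.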 On the technique in general: In flow cytometry, cells or beads pass a laser one at a time.
Description: (§1) Stable cell lines overexpressing a cell-surface antigen of interest or human tumor cell lines were harvested from tissue culture flasks and resuspended in phosphate buffered saline (PBS) containing 5% fetal bovine serum (PBS/FBS). Prior to staining, human tumor cells were incubated on ice with (100 μl) human IgG at 5 μg/ml in PBS/FCS. 1-5×10⁵ cells were incubated with antibody or DVD-Ig (2 μg/mL) in PBS/FBS for 30-60 minutes on ice. […] After 30 minutes incubation on ice, cells were washed twice and resuspended in PBS/FBS. Fluorescence was measured using a Becton Dickinson FACSCalibur (Becton Dickinson, San Jose, Calif.).
(§2) The geometric mean is the n root of the multiplication product of n fluorescent signals (a1×a2×a3 . . . an). With log-transformed data the geometric mean is used to normalize the weighting of the data distribution.

The target of test [3] is T3, EGFR on the cell surface. As to the kind of experiment: flow cytometry on cells, 2 ug/mL, N-terminal VD.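 Note: cells stained for 30 to 60 min on ice.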
Description: as §1, §2

Description for Recombinant Human IGF1R: The BIACORE assay (Biacore, Inc, Piscataway, N.J.) determined the affinity of antibodies or DVD-Ig proteins with kinetic measurements of on-rate and off-rate constants. Binding of antibodies or DVD-Ig proteins to a target antigen (for example, a purified recombinant target antigen) was determined by surface plasmon resonance-based measurements with a Biacore® 1000 or 3000 instrument (Biacore AB, Uppsala. Sweden) using running HBS-EP (10 mM HEPES [pH 7.4], 150 mM NaCl, 3 mM EDTA, and 0.005% surfactant P20) at 25° C. […] For example, approximately 5000 RU of goat anti-mouse IgG, (Fcγ), fragment specific polyclonal antibody (Pierce Biotechnology Inc, Rockford, Ill.) diluted in 10 mM sodium acetate (pH 4.5) was directly immobilized across a CM5 research grade biosensor chip using a standard amine coupling kit according to manufacturer's instructions and procedures at 25 μg/ml. Unreacted moieties on the biosensor surface were blocked with ethanolamine. Modified carboxymethyl dextran surface in flowcell 2 and 4 was used as a reaction surface. Unmodified carboxymethyl dextran without goat anti-mouse IgG in flow cell 1 and 3 was used as the reference surface. For kinetic analysis, rate equations derived from the 1:1 Langmuir binding model were fitted simultaneously to association and dissociation phases of all eight injections (using global fit analysis) with the use of Biaevaluation 4.0.1 software. Purified antibodies or DVD-Ig proteins were diluted in HEPES-buffered saline for capture across goat anti-mouse IgG specific reaction surfaces. Antibodies or DVD-Ig proteins to be captured as a ligand (25 μg/ml) were injected over reaction matrices at a flow rate of 5 μl/minute. The association and dissociation rate constants, kₒₙ (M⁻¹s⁻¹) and koff (s⁻¹) were determined under a continuous flow rate of 25 μl/minute. Rate constants were derived by making kinetic binding measurements at different antigen concentrations ranging from 10-200 nM. The equilibrium dissociation constant (M) of the reaction between antibodies or DVD-Ig proteins and the target antigen was then calculated from the kinetic rate constants by the following formula: KD=koff/kₒₙ. Binding was recorded as a function of time and kinetic rate constants were calculated.

B1: DVD2326 (bispecific antibody)
VH: EVQLVQSGGGLVKPGGSLRLSCAASGFTFSSYAMHWVRQAPGKGLEWVAVISYDGSNKYYADSVKGRFTISRDNSKNTLYLQMNSLRAEDTAVYYCARFSGWPNNYYYYGMDVWGQGTTVTVSSASTKGPEVQLLESGGGLVQPGGSLRLSCTASGFTFSSYAMNWVRQAPGKGLEWVSAISGSGGTTFYADSVKGRFTISRDNSRTTLYLQMNSLRAEDTAVYYCAKDLGWSDSYYYYYGMDVWGQGTTVTVSS
VL: DVVMTQSPLSLPVTPGEPASISCRSSQSLLHSNGFNYVDWYLQKPGQSPHLLIYFGSYRASGVPDRFSGSGSGTDFTLKISRVEAEDVGVYYCMQALQTPPWTFGQGTKVEIRRTVAAPDIQMTQFPSSLSASVGDRVTITCRASQGIRNDLGWYQQKPGKAPKRLIYAASRLHRGVPSRFSGSGSGTEFTLTISSLQPEDFATYYCLQHNSYPCSFGQGTKLEIK
notes: DVD-Ig, outer AB005 / inner AB011
In general, Kd refers to a measure of binding affinity in units of concentration. By koff is commonly meant a measure of how fast the partners let go of each other. In the case of B1, in test [1], the Kd turned out to be 21 nM and the off-rate (koff) amounted to 0.00091 s⁻¹. For the same molecule, in the test with Recombinant Human IGF1R, the binding result is recorded as “no binding (tested: 10-200 nM)”.

B2: DVD2343 (bispecific antibody)
VH: EVQLVESGGGLVQPGGSLRLSCAASGFTFTDYTMDWVRQAPGKGLEWVADVNPNSGGSIYNQRFKGRFTLSVDRSKNTLYLQMNSLRAEDTAVYYCARNLGPSFYFDYWGQGTLVTVSSASTKGPQVQLQESGPGLVKPSQTLSLTCTVSGYSISSDFAWNWIRQPPGKGLEWMGYISYSGNTRYQPSLKSRITISRDTSKNQFFLKLNSVTAADTATYYCVTAGRGFPYWGQGTLVTVSS
VL: DIQMTQSPSSLSASVGDRVTITCKASQDVSIGVAWYQQKPGKAPKLLIYSASYRYTGVPSRFSGSGSGTDFTLTISSLQPEDFATYYCQQYYIYPYTFGQGTKVEIKRTVAAPDIQMTQSPSSMSVSVGDRVTITCHSSQDINSNIGWLQQKPGKSFKGLIYHGTNLDDGVPSRFSGSGSGTDYTLTISSLQPEDFATYYCVQYAQFPWTFGGGTKLEIK
For the molecule B2, the “GEO MEAN” value with EGFR on the cell surface [2] was found to be 6.47.

B3: DVD2290 (bispecific antibody)
VH: EVQLVESGGGLVQPGGSLRLSCAASGFSLTNYGVHWVRQAPGKGLEWLGVGWSGGNTDYNTPFTSRLTINKDNSKNTVYLQMNSLRAEDTAVYYCARALTWYDYEFAYWGQGTLVTVSSASTKGPQVQLQESGPGLVKPSETLSLTCTVSGGSVSSGDYYWTWIRQSPGKGLEWIGHIYYSGNTNYNPSLKSRLTISIDTSKTQFSLKLSSVTAADTAIYYCVRDRVTGAFDIWGQGTMVTVSS
VL: DILLTQSPGTLSLSPGERATLSCRASQSIYTNIHWYQQKPGQAPRLLIKYASESISGIPDRFSGSGSGTDFTLTISRLEPEDFAVYYCQQNLNWPTTFGQGTKLEIKRTVAAPDIQMTQSPSSLSASVGDRVTITCQASQDISNYLNWYQQKPGKAPKLLIYDASNLETGVPSRFSGSGSGTDFTFTISSLQPEDIATYFCQHFDHLPLAFGGGTKVEIK
As to B3, the “GEO MEAN” value with EGFR on the cell surface [2] and in the test with EGFR on the cell surface [3] was 448 throughout.

B4: DVD2283 (bispecific antibody)
VH: QVQLQQWGAGLLKPSETLSLTCAVYGGSFSGYYWSWIRQPPGKGLEWIGEINHSGSTNYNPSLKSRVTISVETSKNQFSLKLSSVTAADTAVYYCARDKWTWYFDLWGRGTLVTVSSASTKGPEVQLVQSGAEVKKPGSSVKVSCKASGGTFSSYAISWVRQAPGQGLEWMGGIIPIFGTANYAQKFQGRVTITADKSTSTAYMELSSLRSEDTAVYYCARAPLRFLEWSTQDHYYYYYMDVWGKGTTVTVSS
VL: DIEMTQSPDSLAVSLGERATINCRSSQSVLYSSSNRNYLAWYQQNPGQPPKLLIYWASTRESGVPDRFSGSGSGTDFTLTISSLQAEDVAVYYCQQYYSTPRTFGQGTKVEIKRTVAAPSSELTQDPAVSVALGQTVRITCQGDSLRSYYATWYQQKPGQAPILVIYGENKRPSGIPDRFSGSSSGNTASLTITGAQAEDEADYYCKSRDGSGQHLVFGGGTKLTVL
notes: DVD-Ig, outer AB062 / inner AB075
In general, kon refers to the second-order rate constant of association. With B4, in the test with Recombinant Human IGF1R, the Kd was determined as 5 nM, the koff came out at 0.00012 s⁻¹ and the kon came to 25000 M⁻¹ s⁻¹.

B5: DVD2291 (bispecific antibody)
VH: QVQLQESGPGLVKPSETLSLTCTVSGGSVSSGDYYWTWIRQSPGKGLEWIGHIYYSGNTNYNPSLKSRLTISIDTSKTQFSLKLSSVTAADTAIYYCVRDRVTGAFDIWGQGTMVTVSSASTKGPEVQLVESGGGLVQPGGSLRLSCAASGFSLTNYGVHWVRQAPGKGLEWLGVGWSGGNTDYNTPFTSRLTINKDNSKNTVYLQMNSLRAEDTAVYYCARALTWYDYEFAYWGQGTLVTVSS
VL: DIQMTQSPSSLSASVGDRVTITCQASQDISNYLNWYQQKPGKAPKLLIYDASNLETGVPSRFSGSGSGTDFTFTISSLQPEDIATYFCQHFDHLPLAFGGGTKVEIKRTVAAPDILLTQSPGTLSLSPGERATLSCRASQSIYTNIHWYQQKPGQAPRLLIKYASESISGIPDRFSGSGSGTDFTLTISRLEPEDFAVYYCQQNLNWPTTFGQGTKLEIK
For B5, the “GEO MEAN” value with EGFR on the cell surface [2] and with EGFR on the cell surface [3] was 541 throughout.

B6: DVD2336 (bispecific antibody)
VH: QVQLQESGPGLVKPSEILSLTCTVSGGSISSHYWSWVRQPPGKGLEWIGYIYYSGSTNYNPSLKSRVTISVDTSKNQFSLNLSSVTAADTAVYYCARIPNYYDRSGYYPGYWYFDLWGRGTLVTVSSASTKGPEVQLVQSGGGLVKPGGSLRLSCAASGFTFSSFAMHWVRQAPGKGLEWISVIDTRGATYYADSVKGRFTISRDNAKNSLYLQMNSLRAEDTAVYYCARLGNFYYGMDVWGQGTTVTVSS
VL: QAVLTQPSSLSAPPGASASLTCTLRSGFNVDSYRISWYQQKPGSPPQYLLRYKSDSDKQQGSGVPSRFSGSKDASANAGILLISGLQSEDEADYYCMIWHSSAWVFGGGTKLTVLRQPKAAPEIVLTQSPGTLSVSPGERATLSCRASQSIGSSLHWYQQKPGQAPRLLIKYASQSLSGIPDRFSGSGSGTDFTLTISRLEPEDFAVYYCHQSSRLPHTFGQGTKVEIK
notes: DVD-Ig, outer AB034 / inner AB077
As for B6, the dissociation constant Kd in test [1] came to 40 nM. For the same molecule, the binding result in the test with Recombinant Human IGF1R is “no binding (tested: 10-200 nM)”.

B7: DVD2324 (bispecific antibody)
VH: EVQLVQSGGGLVKPGGSLRLSCAASGFTFSSYAMHWVRQAPGKGLEWVAVISYDGSNKYYADSVKGRFTISRDNSKNTLYLQMNSLRAEDTAVYYCARFSGWPNNYYYYGMDVWGQGTTVTVSSASTKGPEVQLVQSGGGLVKPGGSLRLSCAASGFTFSSFAMHWVRQAPGKGLEWISVIDTRGATYYADSVKGRFTISRDNAKNSLYLQMNSLRAEDTAVYYCARLGNFYYGMDVWGQGTTVTVSS
VL: DVVMTQSPLSLPVTPGEPASISCRSSQSLLHSNGFNYVDWYLQKPGQSPHLLIYFGSYRASGVPDRFSGSGSGTDFTLKISRVEAEDVGVYYCMQALQTPPWTFGQGTKVEIRRTVAAPEIVLTQSPGTLSVSPGERATLSCRASQSIGSSLHWYQQKPGQAPRLLIKYASQSLSGIPDRFSGSGSGTDFTLTISRLEPEDFAVYYCHQSSRLPHTFGQGTKVEIK
notes: DVD-Ig, outer AB005 / inner AB077
Turning to B7, in test [1], the Kd is 21 nM, the off-rate (koff) came out at 0.00093 s⁻¹ and the kon came out at 44000 M⁻¹ s⁻¹. Also, the binding result in the test with Recombinant Human IGF1R was “no binding (tested: 10-200 nM)”.

B8: DVD2340 (bispecific antibody)
VH: QVQLQESGPGLVKPSEILSLTCTVSGGSISSHYWSWVRQPPGKGLEWIGYIYYSGSTNYNPSLKSRVTISVDTSKNQFSLNLSSVTAADTAVYYCARIPNYYDRSGYYPGYWYFDLWGRGTLVTVSSASTKGPEVQLLESGGGLVQPGGSLRLSCTASGFTFSSYAMNWVRQAPGKGLEWVSAISGSGGTTFYADSVKGRFTISRDNSRTTLYLQMNSLRAEDTAVYYCAKDLGWSDSYYYYYGMDVWGQGTTVTVSS
VL: QAVLTQPSSLSAPPGASASLTCTLRSGFNVDSYRISWYQQKPGSPPQYLLRYKSDSDKQQGSGVPSRFSGSKDASANAGILLISGLQSEDEADYYCMIWHSSAWVFGGGTKLTVLRQPKAAPDIQMTQFPSSLSASVGDRVTITCRASQGIRNDLGWYQQKPGKAPKRLIYAASRLHRGVPSRFSGSGSGTEFTLTISSLQPEDFATYYCLQHNSYPCSFGQGTKLEIK
notes: DVD-Ig, outer AB034 / inner AB011
As for B8, in test [1], the equilibrium dissociation constant (Kd) stood at 23 nM. In addition, in the test with Recombinant Human IGF1R, the binding result was “no binding (tested: 10-200 nM)”.

B9: DVD2347 (bispecific antibody)
VH: EVQLVQSGGGLVKPGGSLRLSCAASGFTFSSFAMHWVRQAPGKGLEWISVIDTRGATYYADSVKGRFTISRDNAKNSLYLQMNSLRAEDTAVYYCARLGNFYYGMDVWGQGTTVTVSSASTKGPQVQLQESGPGLVKPSQTLSLTCTVSGYSISSDFAWNWIRQPPGKGLEWMGYISYSGNTRYQPSLKSRITISRDTSKNQFFLKLNSVTAADTATYYCVTAGRGFPYWGQGTLVTVSS
VL: EIVLTQSPGTLSVSPGERATLSCRASQSIGSSLHWYQQKPGQAPRLLIKYASQSLSGIPDRFSGSGSGTDFTLTISRLEPEDFAVYYCHQSSRLPHTFGQGTKVEIKRTVAAPDIQMTQSPSSMSVSVGDRVTITCHSSQDINSNIGWLQQKPGKSFKGLIYHGTNLDDGVPSRFSGSGSGTDYTLTISSLQPEDFATYYCVQYAQFPWTFGGGTKLEIK
For B9, the “GEO MEAN” value in the test with EGFR on the cell surface [2] is 9.84.

B10: DVD2279 (bispecific antibody)
VH: EVQLVESGGGLVQPGGSLRLSCAASGFTFSIYSMNWVRQAPGKGLEWVSYISSSSSTIYYADSVKGRFTISRDNAKNSLYLQMNSLRDEDTAVYYCARDRGDFDAFDIWGQGTMVTVSSASTKGPEVQLVQSGAEVKKPGSSVKVSCKASGGTFSSYAISWVRQAPGQGLEWMGGIIPIFGTANYAQKFQGRVTITADKSTSTAYMELSSLRSEDTAVYYCARAPLRFLEWSTQDHYYYYYMDVWGKGTTVTVSS
VL: DIQMTQSPSSLSASVGDRVTITCQASQDITNYLNWYQQKPGKAPKLLIYDASNLETGVPSRFSGSGSGTDFTFTISSLQPEDIATYNCQQCENFPITFGQGTRLEIKRTVAAPSSELTQDPAVSVALGQTVRITCQGDSLRSYYATWYQQKPGQAPILVIYGENKRPSGIPDRFSGSSSGNTASLTITGAQAEDEADYYCKSRDGSGQHLVFGGGTKLTVL
notes: DVD-Ig, outer AB063 / inner AB075
Consider B10, for which, in the test with Recombinant Human IGF1R, the dissociation constant (Kd) stood at 0.047 nM, the dissociation rate constant (koff) stood at 2.3e-06 s⁻¹ and the kon came to 49000 M⁻¹ s⁻¹.
